{"source": "patent US20100291189A1", "about": "(RIKEN, published 2010)", "molecular_target": "the molecule itself", "experiment": "SDS-PAGE/CBB staining of sucrose gradient liposome fractions; self-association (homo-tetramer)", "data": [{"protein": "E. coli-derived water channel (AQPZ), full-length, with N-terminal native His tag and TEV protease recognition site, cell-free synthesized (other, No cleavage of the tag by TEV is reported before the gels; Purified in DDM for Blue-Native PAGE, and in a phosphatidylcholine liposome fraction for SDS-PAGE; also called cell-free synthesized AQPZ) MKDHLIHNVHKEEHAHAHNKDYDIPTTENLYFQGSSGSSGMFRKLAAECFGTFWLVFGGCGSAVLAAGFPELGIGFAGVALAFGLTVLTMAFAVGHISGGHFNPAVTIGLWAGGRFPAKEVVGYVIAQVVGGIVAAALLYLIASGKTGFDAAASGFASNGYGEHSPGGYSMLSALVVELVLSAGFLLVIHGATDKFAPAGFAPIAIGLALTLIHLISIPVTNTSVNPARSTAVAIFQGGWALEQLWFFWVVPIVGGIIGGLIYRTLLEKRD", "values": [{"measurement": "binding result", "value": "binds"}]}]}
